Here are results for 1 substance from US20110129470A1.

The target in the experiment is CD33 (cell surface antigen on HL60 and NB4 cells) (UniProt P20138). As to the kind of experiment: cell-based or functional assay.
Sequence of CD33 (cell surface antigen on HL60 and NB4 cells) (P20138 18-364 limits assumed): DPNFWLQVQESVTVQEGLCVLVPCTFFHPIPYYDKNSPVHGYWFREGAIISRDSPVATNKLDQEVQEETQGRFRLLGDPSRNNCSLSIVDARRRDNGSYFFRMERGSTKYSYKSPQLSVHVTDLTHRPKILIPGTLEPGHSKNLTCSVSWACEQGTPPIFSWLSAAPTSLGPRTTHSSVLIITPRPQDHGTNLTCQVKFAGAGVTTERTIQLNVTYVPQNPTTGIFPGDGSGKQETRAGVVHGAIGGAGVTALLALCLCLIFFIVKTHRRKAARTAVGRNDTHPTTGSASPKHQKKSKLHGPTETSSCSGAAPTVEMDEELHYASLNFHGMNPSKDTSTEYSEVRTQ

Sequence of HuM195-dCK conjugate (wild type dCK chemically conjugated to the humanized anti-CD33 monoclonal antibody HuM195) (B2R8V6 whole entry): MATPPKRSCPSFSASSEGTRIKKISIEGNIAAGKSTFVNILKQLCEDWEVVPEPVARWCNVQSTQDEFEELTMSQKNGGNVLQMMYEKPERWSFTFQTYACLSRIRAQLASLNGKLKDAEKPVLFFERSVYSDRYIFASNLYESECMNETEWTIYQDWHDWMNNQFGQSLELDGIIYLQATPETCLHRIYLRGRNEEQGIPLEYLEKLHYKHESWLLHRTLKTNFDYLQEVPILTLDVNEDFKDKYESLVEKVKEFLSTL

Regarding “HuM195-dCK conjugate (wild type dCK chemically conjugated to the humanized anti-CD33 monoclonal antibody HuM195)”, the additional cell killing over AraC alone (Annexin V and propidium iodide apoptosis assay), HL60 cells stood at 20%; the cell death (Annexin V and propidium iodide apoptosis assay), HL60 cells, conjugate in combination with AraC 1 µM stood at 70%; the cell killing (apoptosis assay), NB4 cells, conjugate with AraC 250 nM was determined as 65%.
